Experimental data as given in patent US20160320385A1.

What was measured:
[1] = molecular target: monoclonal antibody (moAb) G12; assay: competitive ELISA with G12-HRP on a plate coated with Sigma gliadin
[2] = molecular target: 33-mer peptide from alpha-2 gliadin; assay: immunochromatographic strips based on G12 moAb (GlutenTox stick); untreated 33-mer peptide
[3] = molecular target: 33-mer peptide from alpha-2 gliadin; assay: immunochromatographic strips based on G12 moAb (GlutenTox stick); 33-mer peptide after digestion
[4] = molecular target: PWG gliadin after gastric and intestinal digestion (pepsin, then trypsin and chymotrypsin); assay: immunochromatographic strips based on G12 moAb (GlutenTox stick); hydrolyzed gliadin
[5] = molecular target: PWG gliadin (intact, undigested) (wheat); assay: immunochromatographic strips based on G12 moAb (GlutenTox stick); gliadin

33-mer peptide from alpha-2 gliadin, sequence (peptide, as listed by the source): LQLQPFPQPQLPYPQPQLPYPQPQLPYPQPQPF

Row | Substance | concentration of 33-mer (33-mer equivalents) [1] | detection limit [2] [ng/mL] | detection limit [3] [ng/mL] | detection limit [4] [ng/mL] | detection limit [5] [ng/mL]
1 | PWG gliadin (intact, undigested) | 21.6 ng 33-mer/µg | – | – | – | –
2 | PWG gliadin after gastric and intestinal digestion (pepsin, then trypsin and chymotrypsin) | 7.5 ng 33-mer/µg | – | – | – | –
3 | PWG gliadin after gastric digestion (pepsin) | 24.5 ng 33-mer/ng | – | – | – | –
4 | monoclonal antibody (moAb) G12 | – | 0.5 | 0.5 | 50 | 30
